B1: Moesin/ezrin/radixin homolog 1 (Drosophila melanogaster (Fruit fly)), P46150 (parent)
chain: MSPKALNVRVTTMDAELEFAIQSTTTGKQLFDQVVKTIGLREVWFFGLQYTDSKGDSTWIKLYKKVMNQDVKKENPLQFRFRAKFYPEDVAEELIQDITLRLFYLQVKNAILTDEIYCPPETSVLLASYAVQARHGDHNKTTHTAGFLANDRLLPQRVIDQHKMSKDEWEQSIMTWWQEHRSMLREDAMMEYLKIAQDLEMYGVNYFEIRNKKGTDLWLGVDALGLNIYEQDDRLTPKIGFPWSEIRNISFSEKKFIIKPIDKKAPDFMFFAPRVRINKRILALCMGNHELYMRRRKPDTIDVQQMKAQAREEKNAKQQEREKLQLALAARERAEKKQQEYEDRLKQMQEDMERSQRDLLEAQDMIRRLEEQLKQLQAAKDELELRQKELQAMLQRLEEAKNMEAVEKLKLEEEIMAKQMEVQRIQDEVNAKDEETKRLQDEVEDARRKQVIAAEAAAALLAASTTPQHHHVAEDENENEEELTNGDAGGDVSRDLDTDEHIKDPIEDRRTLAERNERLHDQLKALKQDLAQSRDETKETANDKIHRENVRQGRDKYKTLREIRKGNTKRRVDQFENM
partner: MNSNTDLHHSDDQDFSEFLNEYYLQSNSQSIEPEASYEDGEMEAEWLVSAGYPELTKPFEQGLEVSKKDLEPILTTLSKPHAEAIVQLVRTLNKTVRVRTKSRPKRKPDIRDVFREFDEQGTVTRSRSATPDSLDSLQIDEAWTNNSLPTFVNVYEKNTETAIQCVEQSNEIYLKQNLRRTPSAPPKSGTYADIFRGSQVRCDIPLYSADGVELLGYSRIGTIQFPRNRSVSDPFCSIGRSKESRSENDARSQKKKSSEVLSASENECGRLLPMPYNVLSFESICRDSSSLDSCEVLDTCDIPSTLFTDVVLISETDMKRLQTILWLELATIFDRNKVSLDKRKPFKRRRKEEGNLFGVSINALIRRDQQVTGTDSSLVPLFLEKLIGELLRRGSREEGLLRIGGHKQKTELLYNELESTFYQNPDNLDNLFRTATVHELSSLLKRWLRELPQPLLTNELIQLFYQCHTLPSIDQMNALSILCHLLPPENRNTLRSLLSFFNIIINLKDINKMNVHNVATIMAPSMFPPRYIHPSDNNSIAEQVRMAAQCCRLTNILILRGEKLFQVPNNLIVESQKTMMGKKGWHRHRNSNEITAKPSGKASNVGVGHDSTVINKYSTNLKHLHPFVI

Variants of: B1
Conditions: with conu_drome conu

Variant | effect of a mutation on the interaction
MSPKALNVRVTTMDAELEFAIQSTTTGKQLFDQVVKTIGLREVWFFGLQYTDSKGDSTWIKLYKKVMNQDVKKENPLQFRFRAKFYPEDVAEELIQDITLRLFYLQVKNAILTDEIYCPPETSVLLASYAVQARHGDHNKTTHTAGFLANDRLLPQRVIDQHKMSKDEWEQSIMTWWQEHRSMLREDAMMEYLKIAQDLEMYGVNYFEIRNKKGTDLWLGVDALGLNIYEQDDRLTPKIGFPWSEIRNISFSEKKFIIKPIDKKAPDFMFFAPRVRINKRILALCMGNHELYMRRRKPDTIDVQQMKAQAREEKNAKQQEREKLQLALAARERAEKKQQEYEDRLKQMQEDMERSQRDLLEAQDMIRRLEEQLKQLQAAKDELELRQKELQAMLQRLEEAKNMEAVEKLKLEEEIMAKQMEVQRIQDEVNAKDEETKRLQDEVEDARRKQVIAAEAAAALLAASTTPQHHHVAEDENENEEELTNGDAGGDVSRDLDTDEHIKDPIEDRRTLAERNERLHDQLKALKQDLAQSRDETKETANDKIHRENVRQGRDKYKDLREIRKGNTKRRVDQFENM [T559D] | increasing interaction strength

— IntAct's records for PubMed 23468526
